Experimental data: US20160030544A1 (published 2016)

Molecular target: fHbp v2.22 WT
Assay: SPR

B1: fH6-7 (other)
chain: TLKPCDYPDIKHGGLYHENMRRPYFPVAVGKYYSYYCDEHFETPSGSYWDHIHCTQDGWSPAVPCLRKCYFPYLENGYNQNYGRKFVQGKSIDVACHPGYALPKAQTTVTCMENGWSPTPRCI
  Kd: 0.3 nM
